Test results published in PMC9482650, “Quantitative fragmentomics allow affinity mapping of interactomes” (Nature Communications, 2022).

T1: GRIP1_2, Q9Y3R0
T1 sequence (Q9Y3R0 145-248, limits assumed, looked up): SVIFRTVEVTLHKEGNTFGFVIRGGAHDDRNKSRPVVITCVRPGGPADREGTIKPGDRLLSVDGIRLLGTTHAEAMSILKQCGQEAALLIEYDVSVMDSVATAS

T2: SHANK1, Q9Y566
T2 sequence (Q9Y566 658-767, limits assumed, looked up): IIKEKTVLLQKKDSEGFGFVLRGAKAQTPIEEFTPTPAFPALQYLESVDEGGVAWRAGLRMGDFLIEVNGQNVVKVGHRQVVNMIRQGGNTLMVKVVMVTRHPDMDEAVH

T3: TX1BP3, O14907
T3 sequence (O14907 10-122, limits assumed, looked up): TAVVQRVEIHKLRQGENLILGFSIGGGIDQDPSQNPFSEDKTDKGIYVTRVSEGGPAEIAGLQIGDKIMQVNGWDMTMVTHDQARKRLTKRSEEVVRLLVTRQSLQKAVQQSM

T4: MPP2, Q14168
T4 sequence (Q14168 180-250, limits assumed, looked up): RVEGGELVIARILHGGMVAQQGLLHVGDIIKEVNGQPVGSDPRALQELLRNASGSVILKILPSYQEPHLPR

T5: SNTB1, Q13884
T5 sequence (Q13884 107-205, limits assumed, looked up): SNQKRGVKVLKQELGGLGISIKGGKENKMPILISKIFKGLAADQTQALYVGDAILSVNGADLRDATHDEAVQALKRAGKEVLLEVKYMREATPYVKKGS

T6: PDZRN3_1, Q9UPQ7
T6 sequence (Q9UPQ7 244-349, limits assumed, looked up): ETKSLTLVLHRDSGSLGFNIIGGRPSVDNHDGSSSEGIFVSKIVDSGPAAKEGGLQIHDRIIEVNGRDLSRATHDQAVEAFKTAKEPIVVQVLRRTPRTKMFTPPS

T7: HTRA4, P83105
T7 sequence (P83105 378-476, limits assumed, looked up): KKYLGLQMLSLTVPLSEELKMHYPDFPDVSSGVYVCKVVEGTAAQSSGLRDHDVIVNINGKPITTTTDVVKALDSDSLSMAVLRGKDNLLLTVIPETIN

T8: PARD3B_1, Q8TEW8
T8 sequence (Q8TEW8 196-299, limits assumed, looked up): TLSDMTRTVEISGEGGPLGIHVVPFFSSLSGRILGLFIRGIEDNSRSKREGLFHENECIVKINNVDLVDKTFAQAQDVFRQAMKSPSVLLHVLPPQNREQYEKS

T9: ARHGAP21, Q5T5U3
T9 sequence (Q5T5U3 45-169, limits assumed, looked up): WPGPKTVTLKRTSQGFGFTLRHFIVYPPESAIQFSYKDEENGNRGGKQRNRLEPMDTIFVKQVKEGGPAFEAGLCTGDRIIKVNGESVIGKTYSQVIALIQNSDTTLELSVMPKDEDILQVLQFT

T10: DFNB31_2, Q9P202
T10 sequence (Q9P202 274-371, limits assumed, looked up): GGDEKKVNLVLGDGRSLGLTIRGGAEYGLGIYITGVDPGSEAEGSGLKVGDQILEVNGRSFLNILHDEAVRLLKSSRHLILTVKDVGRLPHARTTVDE


Legend:
Test in all cases: holdup assay
Design in all cases: key: below the threshold = too weak to quantify, mostly under pKd 3.1 to 4
Settings in all cases: plain residues with an end cap or a label only (N-terminal biotin on a linker: ado-ado)
[1] = molecular target: GRASP, Q7Z6J2
GRASP, Q7Z6J2, sequence (Q7Z6J2 96-193): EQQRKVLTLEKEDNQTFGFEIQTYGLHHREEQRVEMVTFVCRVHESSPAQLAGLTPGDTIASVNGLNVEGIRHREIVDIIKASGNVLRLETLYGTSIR

[2] = molecular target: DLG2_2, Q15700
DLG2_2, Q15700, sequence (Q15700 189-283): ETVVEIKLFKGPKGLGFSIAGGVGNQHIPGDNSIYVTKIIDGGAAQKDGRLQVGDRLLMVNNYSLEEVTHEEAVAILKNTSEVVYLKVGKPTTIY

[3] = molecular target: GRIP2_3, Q9C0E4
GRIP2_3, Q9C0E4, sequence (Q9C0E4 238-339): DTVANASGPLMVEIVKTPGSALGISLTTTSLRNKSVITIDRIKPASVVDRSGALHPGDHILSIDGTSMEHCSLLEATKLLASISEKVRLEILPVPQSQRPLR

[4] = molecular target: T1, GRIP1_2, Q9Y3R0
[5] = molecular target: MAGI2_5, Q86UL8
MAGI2_5, Q86UL8, sequence (Q86UL8 915-1017): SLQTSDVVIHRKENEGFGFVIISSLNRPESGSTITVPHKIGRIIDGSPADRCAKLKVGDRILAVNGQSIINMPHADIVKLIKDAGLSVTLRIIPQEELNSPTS

[6] = molecular target: T2, SHANK1, Q9Y566
[7] = molecular target: MAGI1_1, Q96QZ7
MAGI1_1, Q96QZ7, sequence (Q96QZ7 1-106): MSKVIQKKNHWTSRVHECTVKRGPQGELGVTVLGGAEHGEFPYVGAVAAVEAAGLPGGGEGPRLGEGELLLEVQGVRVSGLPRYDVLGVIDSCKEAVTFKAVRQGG

[8] = molecular target: T3, TX1BP3, O14907
[9] = molecular target: MAGI3_2, Q5TCQ9
MAGI3_2, Q5TCQ9, sequence (Q5TCQ9 398-503): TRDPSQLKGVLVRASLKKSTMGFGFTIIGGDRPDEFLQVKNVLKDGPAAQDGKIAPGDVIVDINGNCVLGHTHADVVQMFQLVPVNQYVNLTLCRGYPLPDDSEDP

[10] = molecular target: FRMPD2_2, Q68DX3
FRMPD2_2, Q68DX3, sequence (Q68DX3 944-1038): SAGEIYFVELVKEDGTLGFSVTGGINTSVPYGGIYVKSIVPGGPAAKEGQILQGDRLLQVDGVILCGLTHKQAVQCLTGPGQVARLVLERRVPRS

[11] = molecular target: T4, MPP2, Q14168
[12] = molecular target: T5, SNTB1, Q13884
[13] = molecular target: IL16_4, Q14005
IL16_4, Q14005, sequence (Q14005 1229-1329): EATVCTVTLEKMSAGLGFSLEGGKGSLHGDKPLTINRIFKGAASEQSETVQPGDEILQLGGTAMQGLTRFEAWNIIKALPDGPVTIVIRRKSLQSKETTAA

[14] = molecular target: T6, PDZRN3_1, Q9UPQ7
[15] = molecular target: Inadl_3, Q8NI35
Inadl_3, Q8NI35, sequence (Q8NI35 359-469): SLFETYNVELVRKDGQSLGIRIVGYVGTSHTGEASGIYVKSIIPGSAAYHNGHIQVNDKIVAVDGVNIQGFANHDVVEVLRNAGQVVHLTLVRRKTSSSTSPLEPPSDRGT

[16] = molecular target: NHERF2_2, Q15599
NHERF2_2, Q15599, sequence (Q15599 142-238): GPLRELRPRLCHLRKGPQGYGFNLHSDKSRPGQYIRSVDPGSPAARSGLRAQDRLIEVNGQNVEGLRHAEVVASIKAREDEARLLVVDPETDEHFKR

[17] = molecular target: PARD3_3, Q8TEW0
PARD3_3, Q8TEW0, sequence (Q8TEW0 582-685): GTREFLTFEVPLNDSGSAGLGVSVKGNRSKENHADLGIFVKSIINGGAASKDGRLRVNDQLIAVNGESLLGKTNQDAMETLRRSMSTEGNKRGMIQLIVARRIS

[18] = molecular target: T7, HTRA4, P83105
[19] = molecular target: LAP2, Q96RT1
LAP2, Q96RT1, sequence (Q96RT1 other isoform, or with tags, fused parts or gaps): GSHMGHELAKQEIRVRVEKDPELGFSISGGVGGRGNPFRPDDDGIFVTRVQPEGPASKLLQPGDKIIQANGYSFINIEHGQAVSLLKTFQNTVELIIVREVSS

[20] = molecular target: GOPC, Q9HD26
[21] = molecular target: DLG5_1, Q8TDM6
DLG5_1, Q8TDM6, sequence (Q8TDM6 617-713): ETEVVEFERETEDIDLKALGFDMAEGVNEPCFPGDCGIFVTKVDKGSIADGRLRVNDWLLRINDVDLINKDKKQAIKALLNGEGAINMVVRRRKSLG

[22] = molecular target: T8, PARD3B_1, Q8TEW8
[23] = molecular target: Inadl_4, Q8NI35
Inadl_4, Q8NI35, sequence (Q8NI35 547-651): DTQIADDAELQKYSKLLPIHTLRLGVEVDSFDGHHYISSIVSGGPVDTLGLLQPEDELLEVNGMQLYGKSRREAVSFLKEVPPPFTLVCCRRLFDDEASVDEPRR

[24] = molecular target: T9, ARHGAP21, Q5T5U3
[25] = molecular target: T10, DFNB31_2, Q9P202
[26] = molecular target: HTRA2, O43464
HTRA2, O43464, sequence (O43464 355-458): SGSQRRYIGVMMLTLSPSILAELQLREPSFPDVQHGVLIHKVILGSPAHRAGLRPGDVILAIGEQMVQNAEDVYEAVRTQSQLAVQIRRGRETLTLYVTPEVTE

| Binder | pKd [1] | pKd [2] | pKd [3] | pKd [4] | pKd [5] | pKd [6] | pKd [7] | pKd [8] | pKd [9] | pKd [10] | pKd [11] | pKd [12] | pKd [13] | pKd [14] | pKd [15] | pKd [16] | pKd [17] | pKd [18] | pKd [19] | pKd [20] | other results |
| --- | --- | --- | --- | --- | --- | --- | --- | --- | --- | --- | --- | --- | --- | --- | --- | --- | --- | --- | --- | --- | --- |
| SPDRDRESIV [SCN5A, Q14524] | below the threshold | 4.58 | below the threshold | below the threshold | 4.12 | below the threshold | below the threshold | 4.5 | 4.9 | 3.76 | below the threshold | 5.66 | below the threshold | 3.91 | 3.56 | below the threshold | 3.86 | 3.9 | below the threshold | 3.7 | pKd [21]: below the threshold; pKd [22]: below the threshold; pKd [23]: below the threshold; pKd [24]: 3.91; pKd [25]: below the threshold; pKd [26]: below the threshold |
| ILRKSTTTTV [PRR16, Q569H4] | 4.41 | 5.17 | below the threshold | below the threshold | below the threshold | below the threshold | below the threshold | 3.66 | 5.15 | below the threshold | below the threshold | 3.85 | 3.54 | below the threshold | below the threshold | below the threshold | below the threshold | 4.12 | below the threshold | 3.92 | pKd [21]: below the threshold; pKd [22]: below the threshold; pKd [23]: below the threshold; pKd [24]: 3.92; pKd [25]: below the threshold; pKd [26]: below the threshold |
| LESTTVGTSV [KARS1, Q15046] | 3.95 | 4.06 | below the threshold | below the threshold | 4.06 | 3.71 | 3.5 | 3.6 | 4.09 | 3.79 | below the threshold | 3.85 | below the threshold | 4.24 | below the threshold | below the threshold | below the threshold | below the threshold | 3.92 | below the threshold | pKd [21]: below the threshold; pKd [22]: below the threshold; pKd [23]: below the threshold; pKd [24]: below the threshold; pKd [25]: below the threshold; pKd [26]: below the threshold |
| ARESQKVSHV [FAM110B, Q8TC76] | 3.8 | 4.24 | below the threshold | below the threshold | 3.66 | below the threshold | below the threshold | 4.9 | 5.28 | 4.31 | below the threshold | 4.52 | below the threshold | below the threshold | below the threshold | below the threshold | below the threshold | 4.1 | 3.66 | 3.98 | pKd [21]: below the threshold; pKd [22]: below the threshold; pKd [23]: below the threshold; pKd [24]: 3.92; pKd [25]: 3.9; pKd [26]: below the threshold |
| TNSRHGETTV [FZD2, Q14332] | 3.56 | 4.81 | below the threshold | below the threshold | 3.6 | below the threshold | below the threshold | 3.68 | 5.11 | 3.54 | below the threshold | 4.75 | below the threshold | 3.99 | 3.51 | below the threshold | below the threshold | below the threshold | 4.02 | 3.88 | pKd [21]: 3.48; pKd [22]: below the threshold; pKd [23]: below the threshold; pKd [24]: 4.04; pKd [25]: below the threshold; pKd [26]: below the threshold |
| STKRKLASAV [NCF1, P14598] | 3.65 | 4.16 | below the threshold | below the threshold | 3.99 | below the threshold | below the threshold | 3.72 | 5.35 | below the threshold | below the threshold | below the threshold | below the threshold | below the threshold | below the threshold | below the threshold | below the threshold | below the threshold | below the threshold | below the threshold | pKd [21]: below the threshold; pKd [22]: below the threshold; pKd [23]: below the threshold; pKd [24]: below the threshold; pKd [25]: below the threshold; pKd [26]: below the threshold |
